Assay [1] addresses soluble plasma fibronectin (Fn) isolated from human plasma (human) (UniProt P02751). The assay is described as follows: fluorescence anisotropy titration, 100 nM labelled peptide, Fn 0 to 1.4 µM in PBS, one-site-binding model. A general note: In fluorescence polarisation assays a small probe gives low polarisation when free and higher when bound to something large.
For assay [2], the target named is manually pulled Fn fibers (relaxed, fibrillar fibronectin from human plasma, 5% Fn-Cy5) (human) (UniProt P02751). The assay is described as follows: titration of fluorescent peptide on relaxed manually pulled Fn fibers, confocal intensity ratio peptide/Fn-Cy5, Hill fit.
Assay [3] has the same target. The assay is described as follows: displacement assay on relaxed manually pulled Fn fibers, competitor of FnBPA5-Alexa488.

Usually Kd stands for the free concentration of one partner at which half of the binding sites on the other are occupied at equilibrium, for simple one-to-one binding. As a reminder, the IC50 is the concentration that inhibits the measured activity by half. Higher therefore signals weaker potency.

For the substance FnBPA5-Alexa488 (peptide), the dissociation constant Kd in assay [1] amounted to 75 nM; in assay [2], 28 nM.

natIn-FnBPA5 (cold labeled) (peptide) displayed an IC50 in assay [3] of 49 nM.
